Reference: US20130330324A1 (Novartis, published 2013)
Where a chain is given by its changes, count along the chain named.

B1: MOR09823 (antibody, human IgG1, kappa, V domains shown)
VH: QVQLVESGGGLVQPGGSLRLSCAASGFTFSSYAMSWVRQAPGKGLEWVSVTGAVGRTYYPDSVKGRFTISRDNSKNTLYLQMNSLRAEDTAVYYCARWGDEGFDIWGQGTLVTVSS
VL: DIQMTQSPSSLSASVGDRVTITCRASQGISNWLAWYQQKPGKAPKLLIYGASSLQSGVPSRFSGSGSGTDFTLTISSLQPEDFAVYYCQQYSSFPTTFGQGTKVEIKR
notes: tested as IgG
B2: MOR12610 (antibody, human IgG1, kappa, V domains shown)
VH: B1 VH with V50G, A53P, V54Y, R56G
VL: B1 VL
notes: tested as IgG
B3: MOR09825 (antibody, human IgG1, kappa, V domains shown)
VH: QVQLVESGGGLVQPGGSLRLSCAASGFTFSSYAMSWVRQAPGKGLEWVSAINSQGKSTYYADSVKGRFTISRDNSKNTLYLQMNSLRAEDTAVYYCARWGDEGFDIWGQGTLVTVSS
VL: B1 VL
notes: tested as IgG
B4: MOR09824 (antibody, human IgG1, kappa, V domains shown)
VH: B3 VH with A50V, N52S, S53A, Q54W, K56H, S57V, T58K
VL: B1 VL
notes: tested as IgG
B5: MOR09974 (antibody, human IgG1, kappa, V domains shown)
VH: B3 VH with A50V, S53P, Q54S, K56N, S57F, Y59N
VL: B1 VL
notes: tested as IgG
B6: MOR10701 (antibody, human IgG1, kappa, V domains shown)
VH: B3 VH with Q1E, V5L, A50V, I51T, N52G, S53A, Q54V, K56R, A61P
VL: B1 VL with V85T
notes: tested as IgG
B7: MOR10703 (antibody, human IgG1, kappa, V domains shown)
VH: B3 VH with Q1E, V5L
VL: B1 VL with V85T
notes: tested as IgG
B8: MOR12609 (antibody, human IgG1, kappa, V domains shown)
VH: B3 VH with A50V, S53G, Q54L, K56Y, S57T, Y59F
VL: B1 VL
notes: tested as IgG
B9: MOR10702 (antibody, human IgG1, kappa, V domains shown)
VH: B3 VH with Q1E, V5L, A50V, N52S, S53A, Q54W, K56H, S57V, T58K
VL: B1 VL with V85T
notes: tested as IgG
B10: MOR10703 A50V_N52G (antibody, human IgG1, kappa, V domains shown)
VH: B3 VH with Q1E, V5L, A50V, N52G
VL: B1 VL with V85T
notes: Variant of MOR10703; IgG1/kappa
B11: MOR10701 R55G (antibody, human IgG1, kappa, V domains shown)
VH: B3 VH with Q1E, V5L, A50V, I51T, N52G, S53A, Q54V, K56G, A61P
VL: B1 VL with V85T
notes: Variant of MOR10701; IgG1/kappa
B12: MOR10701 R55K (antibody, human IgG1, kappa, V domains shown)
VH: B3 VH with Q1E, V5L, A50V, I51T, N52G, S53A, Q54V, A61P
VL: B1 VL with V85T
notes: as for B11
B13: MOR10703 A50V_N52S (antibody, human IgG1, kappa, V domains shown)
VH: B3 VH with Q1E, V5L, A50V, N52S
VL: B1 VL with V85T
notes: as for B10
B14: MOR10703 N52G (antibody, human IgG1, kappa, V domains shown)
VH: B3 VH with Q1E, V5L, N52G
VL: B1 VL with V85T
notes: as for B10
B15: MOR10703 N52S (antibody, human IgG1, kappa, V domains shown)
VH: B3 VH with Q1E, V5L, N52S
VL: B1 VL with V85T
notes: as for B10

Target: T1, Human HER3, endogenous, on human cancer cell lines (human, UniProt P21860 20-1342)
Test: cell-based or functional assay

Binder | MCF7 pHER3 % inhibition | MCF7 pHER3 IC50 | SK-Br-3 pHER3 % inhibition | SK-Br-3 pHER3 IC50
B1 | 89% | 181 pM | 59% | 56 pM
B2 | 84% | 126 pM | 75% | 192 pM
B3 | 80% | 399 pM | 66% | 169 pM
B4 | 91% | 103 pM | 64% | 110 pM
B5 | 69% | 3070 pM | 67% | 1930 pM
B6 |  |  | 74% | 370 pM
B7 | 80% | 333 pM | 69% | 167 pM
B8 | 86% | 5 pM | 71% | 241 pM

Target: T2, Rat HER3 (CD33-[Rat HER3, residues 20-643]-TAG) (rat, UniProt Q62799 20-643)
T2 construct: range 20-643; CD33 leader left out as signal; also called ra HER3-Tag; not shown: C-terminal TAG (e.g. FLAG TAG)
Test: solution equilibrium titration (SET), IgG

Binder | Kd
B1 | 0.011 nM
B3 | 0.096 nM
B4 | 0.007 nM
B6 | 0.01 nM
B7 | 0.04 nM
B9 | 0.006 nM

Target: T3, Hu HER3 (CD33-[Human HER3, residues 20-640]-TAG) (human, UniProt P21860 20-640)
T3 construct: N-terminal CD33 leader is a secretion signal and is left out; also called hu HER3-Tag; HER3-Tag; not shown: C-terminal TAG (e.g. FLAG TAG)
Test: solution equilibrium titration (SET), IgG

Binder | Kd
B1 | 0.009 nM
B2 | 0.037 nM
B3 | 0.025 nM
B4 | 0.003 nM
B5 | 0.35 nM
B6 | 0.004 nM
B7 | 0.026 nM
B10 | 0.022 nM
B11 | 0.018 nM
B12 | 0.011 nM
B13 | 0.016 nM
B14 | 0.06 nM
B15 | 0.057 nM
B8 | 0.01 nM
B9 | 0.003 nM

Target: T4, Mu HER3 (CD33-[Murine HER3, residues 20-643]-TAG) (mouse, UniProt Q61526 20-643)
T4 construct: range 20-643; CD33 leader left out as signal; also called mu HER3-Tag; not shown: C-terminal TAG (e.g. FLAG TAG)
Test: solution equilibrium titration (SET), IgG

Binder | Kd
B1 | 0.002 nM
B3 | 0.024 nM
B4 | 0.002 nM
B5 | 0.12 nM
B6 | 0.006 nM
B7 | 0.02 nM
B9 | 0.005 nM

Target: T5, Cyno HER3 (CD33-[Cyno HER3, residues 20-643]-TAG) (cynomolgus, UniProt G7PIG5 20-643)
T5 construct: range 20-643; CD33 leader left out as signal; also called cy HER3-Tag; not shown: C-terminal TAG (e.g. FLAG TAG)
Test: solution equilibrium titration (SET), IgG

Binder | Kd
B1 | 0.004 nM
B3 | 0.056 nM
B4 | 0.003 nM
B5 | 0.2 nM
B6 | 0.004 nM
B7 | 0.023 nM
B9 | 0.003 nM

Target: T3, Hu HER3 (CD33-[Human HER3, residues …)
Test: ELISA titration, wild-type HER3-Tag coated, antibody titrated, OD450

Binder | EC50 (read off the curve)
B7 | ~0.3 nM

Target: T1, Human HER3, endogenous, on human cancer …
Test: cell-based or functional assay
Remark: another data set of the same source

Binder | BT-474 pAkt (S473) % inhibition | SK-Br-3 pAkt (S473) % inhibition | SK-Br-3 pAkt (S473) IC50 | MCF7 pAkt (S473) IC50
B1 | 57% | 92% | 55 pM | 
B3 | 69% | 91% | 156 pM | 294 pM
B4 | 46% | 93% | 62 pM | 
B5 |  | 85% | 814 pM | 
B6 | 59% |  |  | 
B7 | 62% | 89% | 70 pM | 449 pM
B9 | 55% |  |  | 

Target: T1, Human HER3, endogenous, on human cancer …
Test: cell-based or functional assay
Remark: another data set of the same source

Binder | BT-474 proliferation % inhibition at 10 µg/ml IgG | MCF7 (neuregulin stimulated) proliferation % inhibition at 10 µg/ml IgG | SK-Br-3 proliferation % inhibition at 10 µg/ml IgG
B1 | 39.8% | 82% | 39%
B3 | 37.2% | 63% | 41%
B4 | 36.8% | 82% | 33%
B5 |  | 20% | 35%
B6 | 43.6% |  | 
B7 | 41.6% | 81% | 35%
B9 | 43.8% |  | 

Target: T6, HER3 L268A (CD33-[Human HER3, residues 20-640, L268A]-TAG) (human, UniProt P21860 20-640)
T6 construct: CD33 leader left out as signal; also called HER3 L268A-Tag; not shown: C-terminal TAG
Test: ELISA titration, mutant HER3-Tag coated, antibody titrated, OD450

Binder | binding result
B7 | no binding

Target: T7, HER3 K267A (CD33-[Human HER3, residues 20-640, K267A]-TAG) (human, UniProt P21860 20-640)
T7 construct: CD33 leader left out as signal; also called HER3 K267A-Tag; not shown: C-terminal TAG
Test: as above

Binder | binding result
B7 | no binding

Target: T1, Human HER3, endogenous, on human cancer …
Test: FACS titration on SK-Br-3 cells

Binder | EC50
B1 | 0.63 nM
B3 | 0.839 nM
B4 | 0.324 nM
B7 | 2.45 nM
